Assays:
HLA-A*02:01 = test: IEDB peptide-MHC binding, purified MHC/direct/fluorescence; filed as Kd, often an IC50 or EC50 that approximates it; ≥ and ≤ were set here for values at or beyond the usual limits of such assays
HLA-A*02:03 = test: as above
HLA-A*02:11 = test: as above
HLA-A*02:12 = test: as above
HLA-A*02:16 = test: as above
HLA-A*02:19 = test: as above
HLA-A*03:01 = test: as above
HLA-A*23:01 = test: as above
HLA-A*24:03 = test: as above
HLA-A*26:01 [1] = test: as above
HLA-A*29:02 = test: as above
HLA-A*68:02 = test: as above
HLA-A*69:01 [2] = test: as above
HLA-B*07:02 = test: as above
HLA-B*15:01 = test: as above
HLA-B*15:17 = test: as above
HLA-B*18:01 = test: as above
HLA-B*27:03 [3] = test: as above
HLA-B*35:01 = test: as above
HLA-B*39:01 [4] = test: as above
HLA-B*46:01 = test: as above
HLA-B*51:01 [5] = test: as above
HLA-B*57:01 = test: as above
HLA-C*05:01 = test: as above; conditions: source organism: human gammaherpesvirus 4
HLA-C*08:02 = test: as above; conditions: source organism: human gammaherpesvirus 4
HLA-C*12:03 = test: as above
HLA-B*15:02 [6] = test: as above; conditions: source organism: Hantaan virus Q32
HLA-A*01:01 = test: as above
HLA-A*11:01 = test: as above; conditions: source organism: Cryptosporidium parvum
HLA-A*31:01 = test: as above; conditions: source organism: Cryptosporidium parvum
HLA-B*08:01 = test: as above
HLA-B*27:05 = test: as above
HLA-B*40:01 = test: as above
HLA-B*44:02 = test: as above; conditions: source organism: Cryptosporidium parvum
HLA-B*58:01 = test: as above; conditions: source organism: Cryptosporidium parvum
HLA-A*02:50 = test: IEDB peptide-MHC binding, purified MHC/competitive/fluorescence; filed as Kd, often an IC50 or EC50 that approximates it; ≥ and ≤ were set here for values at or beyond the usual limits of such assays; conditions: source organism: Cryptosporidium parvum
HLA-A*80:01 = test: IEDB peptide-MHC binding, purified MHC/direct/fluorescence; filed as Kd, often an IC50 or EC50 that approximates it; ≥ and ≤ were set here for values at or beyond the usual limits of such assays
HLA-B*48:01 = test: as above; conditions: source organism: Orthohantavirus negraense
HLA-A*26:01 [7] = test: IEDB peptide-MHC binding, purified MHC/competitive/fluorescence; filed as Kd, often an IC50 or EC50 that approximates it; ≥ and ≤ were set here for values at or beyond the usual limits of such assays; conditions: source organism: Orthohantavirus tulaense
HLA-A*69:01 [8] = test: as above; conditions: source organism: Orthohantavirus tulaense
HLA-B*27:03 [9] = test: as above; conditions: source organism: Orthohantavirus tulaense
HLA-B*39:01 [10] = test: as above; conditions: source organism: Orthohantavirus tulaense
HLA-B*51:01 [11] = test: as above; conditions: source organism: Orthohantavirus tulaense
HLA-B*15:02 [12] = test: as above; conditions: source organism: Shigella boydii CDC 3083-94
[13] = source organism: Coxiella burnetii Q321
[14] = source organism: Orthohantavirus hantanense
[15] = source organism: Toxoplasma gondii RH
[16] = source organism: Cryptosporidium parvum
[17] = source organism: Cryptosporidium parvum Iowa II
[18] = source organism: Orthohantavirus negraense
[19] = source organism: Orthohantavirus tulaense

Measured: Kd

DGAEGINPY
8.58 µM: HLA-B*07:02; [13]
0.267 µM: HLA-B*35:01; [13]
≥ 20 µM: HLA-A*02:01; [13] | HLA-A*02:03; [13] | HLA-A*02:11; [13] | HLA-A*02:12; [13] | HLA-A*02:16; [13] | HLA-A*02:19; [13] | HLA-A*03:01; [13] | HLA-A*23:01; [13] | HLA-A*24:03; [13] | HLA-A*26:01 [1]; [13] | HLA-A*29:02; [13] | HLA-A*68:02; [13] | HLA-A*69:01 [2]; [13] | HLA-B*15:17; [13] | HLA-B*18:01; [13] | HLA-B*27:03 [3]; [13] | HLA-B*39:01 [4]; [13] | HLA-B*46:01; [13] | HLA-B*51:01 [5]; [13] | HLA-B*57:01; [13]
11 µM: HLA-B*15:01; [13]

YAAPQLFPV
0.004 µM: HLA-C*12:03; source organism: human gammaherpesvirus 4
0.069 µM: HLA-C*08:02
0.065 µM: HLA-C*05:01

LQYAIRSVF
0.004 µM: HLA-B*15:01; [14]
0.008 µM: HLA-B*15:02 [6]
1.95 µM: HLA-B*46:01; [14]

LTMNLVSDI
0.003 µM: HLA-B*15:17; [15]
≥ 20 µM: HLA-A*03:01; [15] | HLA-A*24:03; [15] | HLA-A*26:01 [1]; [15] | HLA-B*15:01; [15] | HLA-B*18:01; [15] | HLA-B*27:03 [3]; [15] | HLA-B*39:01 [4]; [15] | HLA-B*46:01; [15] | HLA-B*57:01; [15]

WLPWIPQLI
≥ 5 µM: HLA-B*15:01; [16]
1.24 µM: HLA-A*02:01; [16]
3.44 µM: HLA-A*24:03; [16]
0.0046 µM: HLA-A*02:50
16 µM: HLA-B*35:01; [16]
0.415 µM: HLA-A*69:01 [2]; [16]
≥ 20 µM: HLA-A*01:01; [16] | HLA-A*03:01; [16] | HLA-A*11:01 | HLA-A*26:01 [1]; [16] | HLA-A*31:01 | HLA-B*08:01; [16] | HLA-B*27:05; [16] | HLA-B*40:01; [16] | HLA-B*44:02 | HLA-B*58:01

HSEEGSRAY
≥ 20 µM: HLA-A*80:01; source organism: Yellow fever virus

MTGVMRGNY
0.38 µM: HLA-A*80:01; source organism: Yellow fever virus strain Ghana/Asibi/1927

LPWFLDTTI
≥ 20 µM: HLA-A*02:01; [17] | HLA-A*02:03; [17] | HLA-A*02:12; [17] | HLA-A*02:16; [17] | HLA-A*02:19; [17] | HLA-A*03:01; [17] | HLA-A*26:01 [1]; [17] | HLA-B*15:01; [17] | HLA-B*18:01; [17] | HLA-B*27:03 [3]; [17] | HLA-B*39:01 [4]; [17] | HLA-B*46:01; [17] | HLA-B*57:01; [17]
0.034 µM: HLA-B*51:01 [5]; [17]

MSRKLHRYI
0.441 µM: HLA-C*12:03; [19]
≥ 20 µM: HLA-A*01:01; [18] | HLA-A*02:01; [18] | HLA-A*02:11; [19] | HLA-A*02:12; [19] | HLA-A*03:01; [19] | HLA-A*23:01; [19] | HLA-A*24:03; [19] | HLA-A*29:02; [18] | HLA-A*68:02; [19] | HLA-B*07:02; [18] | HLA-B*15:01; [18] | HLA-B*18:01; [18] | HLA-B*27:05; [18] | HLA-B*40:01; [18] | HLA-B*46:01; [18] | HLA-B*48:01 | HLA-A*26:01 [7] | HLA-A*69:01 [8] | HLA-B*27:03 [9] | HLA-B*39:01 [10] | HLA-B*51:01 [11]
4.71 µM: HLA-B*08:01; [18]

FMAAFYRVM
0.0183 µM: HLA-B*15:02 [12]
≤ 0.001 µM: HLA-C*12:03; source organism: Shigella boydii CDC 3083-94

Reference: the Immune Epitope Database (IEDB)
